One test concerns the target CXCL5. Nature of the test: BLI.
In another test the target is CXCL2. In words: BLI.
The target in the next test is CXCL6. In words: BLI; previously obtained data.
For test [1], the target named is T1, CCL19_HUMAN (human, UniProt Q99731 22-98).
T1 chain: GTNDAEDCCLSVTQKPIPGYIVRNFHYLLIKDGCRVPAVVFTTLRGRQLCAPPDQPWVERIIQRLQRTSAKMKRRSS
In words: BLI.

Another test has as its target T2, CCL16_HUMAN (human, UniProt O15467 24-120).
T2 chain: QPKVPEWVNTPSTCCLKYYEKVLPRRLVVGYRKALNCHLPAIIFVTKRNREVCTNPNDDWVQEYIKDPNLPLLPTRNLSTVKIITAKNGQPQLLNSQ
In words: BLI.

Test [2] deals with T3, CCL5_HUMAN (human, UniProt P13501 24-91).
T3 chain: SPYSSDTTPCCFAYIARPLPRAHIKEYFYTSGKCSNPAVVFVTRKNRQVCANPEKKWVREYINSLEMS
In words: BLI.

The target of test [3] is T4, CCL24_HUMAN (human, UniProt O00175 27-104).
T4 chain: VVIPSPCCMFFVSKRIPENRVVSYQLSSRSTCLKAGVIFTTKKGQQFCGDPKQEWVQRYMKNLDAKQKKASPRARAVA
Nature of the test: BLI.

Test [4] addresses T5, CCL23_HUMAN (human, UniProt P55773 22-120).
T5 chain: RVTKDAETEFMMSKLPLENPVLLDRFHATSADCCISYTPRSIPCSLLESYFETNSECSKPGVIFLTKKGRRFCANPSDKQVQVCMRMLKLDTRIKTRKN
In words: BLI.

Test [5] deals with T6, CCL13_HUMAN (human, UniProt Q99616 24-98). Nature of the test: BLI.
Test [6] concerns the target T7, CCL21_HUMAN (human, UniProt O00585 24-134).
T7 chain: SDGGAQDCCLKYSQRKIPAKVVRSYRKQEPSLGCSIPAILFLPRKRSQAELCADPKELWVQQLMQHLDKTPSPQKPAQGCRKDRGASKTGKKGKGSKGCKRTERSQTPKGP
In words: BLI.

Another test addresses T8, CCL4L1_HUMAN (human, UniProt Q8NHW4 24-92).
T8 chain: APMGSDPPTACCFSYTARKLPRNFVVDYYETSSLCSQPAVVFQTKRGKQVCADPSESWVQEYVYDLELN
In words: BLI.

For test [7], the target named is T9, CCL15_HUMAN (human, UniProt Q16663 22-113).
T9 chain: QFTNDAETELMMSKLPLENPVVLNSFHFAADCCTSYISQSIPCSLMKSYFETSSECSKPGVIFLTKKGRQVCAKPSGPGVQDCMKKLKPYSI
In words: BLI.

Test [8] deals with T10, CCL11_HUMAN (human, UniProt P51671 24-97). In words: BLI.
Test [9] deals with T11, CCL7_HUMAN (human, UniProt P80098 24-99). Nature of the test: BLI.
Test [10] has as its target T12, CCL8_HUMAN (human, UniProt P80075 24-99).
T12 chain: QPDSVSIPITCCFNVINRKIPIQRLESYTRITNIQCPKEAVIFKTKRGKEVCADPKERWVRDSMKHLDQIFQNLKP
In words: BLI.

For test [11], the target named is T13, CCL14_HUMAN (human, UniProt Q16627 22-93).
T13 chain: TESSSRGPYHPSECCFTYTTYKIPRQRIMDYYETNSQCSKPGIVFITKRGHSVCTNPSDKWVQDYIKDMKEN
Nature of the test: BLI.

A further test concerns the target T14, CCL1_HUMAN (human, UniProt P22362 24-96).
T14 chain: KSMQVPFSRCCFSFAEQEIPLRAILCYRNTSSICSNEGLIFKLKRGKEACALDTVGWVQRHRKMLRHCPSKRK
In words: BLI.

The target of the next test is CCL20_HUMAN (human, UniProt P78556 27-96). Nature of the test: BLI.
For another test, the target named is CCL2_HUMAN (human, UniProt P13500 24-99). Nature of the test: BLI.
Test [12] addresses T15, CCL4_HUMAN (human, UniProt P13236 24-92).
T15 chain: T8 chain with G47S
Nature of the test: BLI.

Test [13] concerns the target T16, CCL3L1_HUMAN (human, UniProt P16619 24-93).
T16 chain: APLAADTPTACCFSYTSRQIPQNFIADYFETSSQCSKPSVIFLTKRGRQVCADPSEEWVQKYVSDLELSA
In words: BLI.

Test [14] concerns the target T17, CCL3_HUMAN (human, UniProt P10147 24-92).
T17 chain: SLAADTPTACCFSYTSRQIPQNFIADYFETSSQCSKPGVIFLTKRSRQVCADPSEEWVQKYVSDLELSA
In words: BLI.

In test [15] the target is T18, CCL18_HUMAN (human, UniProt P55774 21-89).
T18 chain: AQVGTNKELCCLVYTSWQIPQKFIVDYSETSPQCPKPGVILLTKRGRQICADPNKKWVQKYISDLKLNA
In words: BLI.

Test [16] addresses T19, CCL17_HUMAN (human, UniProt Q92583 24-94).
T19 chain: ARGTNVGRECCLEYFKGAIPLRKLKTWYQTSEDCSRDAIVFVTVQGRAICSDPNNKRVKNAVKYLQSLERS
Nature of the test: BLI.

Another test addresses T20, CCL22_HUMAN (human, UniProt O00626 25-93).
T20 chain: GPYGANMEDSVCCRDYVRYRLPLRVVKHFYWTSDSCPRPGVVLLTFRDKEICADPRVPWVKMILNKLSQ
Nature of the test: BLI.

The target in test [17] is T1, CCL19_HUMAN. Nature of the test: BLI.
Another test concerns the target T21, CCL27_HUMAN (human, UniProt Q9Y4X3 25-112).
T21 chain: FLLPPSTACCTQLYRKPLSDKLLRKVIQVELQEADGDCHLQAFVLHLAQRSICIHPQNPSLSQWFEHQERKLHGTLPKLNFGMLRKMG
Nature of the test: BLI.

Test [18] concerns the target T3, CCL5_HUMAN. In words: BLI.
Test [19] has as its target T4, CCL24_HUMAN. Nature of the test: BLI.
Test [20] deals with T5, CCL23_HUMAN. In words: BLI.
Test [21] concerns the target T6, CCL13_HUMAN. In words: BLI. The source holds these as a separate data set.
In test [22] the target is T7, CCL21_HUMAN. In words: BLI.
The target in test [23] is T9, CCL15_HUMAN. In words: BLI.
The target of test [24] is T10, CCL11_HUMAN. Nature of the test: BLI. This is another data set of the same source.
The target in test [25] is T11, CCL7_HUMAN. Nature of the test: BLI. The source holds these as a separate data set.
Test [26] addresses T12, CCL8_HUMAN. In words: BLI.
The target of test [27] is T13, CCL14_HUMAN. Nature of the test: BLI.
For test [28], the target named is T15, CCL4_HUMAN. Nature of the test: BLI.
In test [29] the target is T16, CCL3L1_HUMAN. Nature of the test: BLI.
Test [30] concerns the target T17, CCL3_HUMAN. In words: BLI.
Test [31] concerns the target T18, CCL18_HUMAN. In words: BLI.
The target in test [32] is T19, CCL17_HUMAN. Nature of the test: BLI.
Another test deals with CXCL1_HUMAN (human, UniProt P09341 35-107). Nature of the test: BLI.
Another test concerns the target CXCL8_HUMAN (human, UniProt P10145 28-99). Nature of the test: BLI.

Substitutions are numbered along the chain they refer to. Names may count otherwise. Where two headings read alike, the source gives them in different places.

T11 sequence (P80098 24-99): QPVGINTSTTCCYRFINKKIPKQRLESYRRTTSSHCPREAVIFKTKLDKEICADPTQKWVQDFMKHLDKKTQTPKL
T6 sequence (Q99616 24-98): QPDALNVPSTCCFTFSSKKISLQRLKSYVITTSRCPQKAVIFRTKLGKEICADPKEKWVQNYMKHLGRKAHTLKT
T10 sequence (P51671 24-97): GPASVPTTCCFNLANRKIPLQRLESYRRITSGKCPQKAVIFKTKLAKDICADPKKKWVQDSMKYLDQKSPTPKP
Sequence of CXCL1_HUMAN (P09341 35-107): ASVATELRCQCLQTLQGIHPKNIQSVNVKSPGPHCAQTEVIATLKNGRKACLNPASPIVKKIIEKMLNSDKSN
Sequence of CCL2_HUMAN (P13500 24-99): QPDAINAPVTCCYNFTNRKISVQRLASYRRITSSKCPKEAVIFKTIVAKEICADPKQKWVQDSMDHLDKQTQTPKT
Sequence of CCL20_HUMAN (P78556 27-96): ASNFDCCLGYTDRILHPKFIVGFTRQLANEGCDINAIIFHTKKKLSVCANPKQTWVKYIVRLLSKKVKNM
Sequence of CXCL8_HUMAN (P10145 28-99): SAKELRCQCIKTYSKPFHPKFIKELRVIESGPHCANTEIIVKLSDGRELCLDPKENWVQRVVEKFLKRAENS

B1: P1156 (other)
chain: ADDDNELFTVQYCGMNCTKDEGGTWTGCTGKKEGCKCYHESGKNYGLCLSTEYTDFSQYGNPSDSEIEAAKPKRSDTLSH
For B1, the results for the Kd with CXCL5, in the test with CXCL2 and with CXCL6 were 39.9 nM, 30.3 nM and 62.7 nM, respectively.

B2: P991_AMBCA (other)
chain: ENGEGTTQPDYDNSTDYYNYEDFKCTCPAPHLNNTNGTVMKPIGCYYTCNVTRCTAPDTYPCYNLTEHQAKNLTTSPTTLCAVGNCDHGICVPNGTKELCFKAPNLEE
With B2, the Kd was 12 nM with CCL19_HUMAN [1]; 0.536 nM with CCL16_HUMAN; 0.869 nM with CCL5_HUMAN [2]; 5.42 nM with CCL24_HUMAN [3]; 5.87 nM in the test with CCL23_HUMAN [4]; 0.191 nM in the test with CCL13_HUMAN [5]. Besides, the Kd with CCL21_HUMAN [6] turned out to be 26.1 nM; in the test with CCL4L1_HUMAN, 1.34 nM; with CCL15_HUMAN [7] it was 109 nM; with CCL11_HUMAN [8] it was 1.9 nM; in the test with CCL7_HUMAN [9], 0.241 nM; with CCL8_HUMAN [10], 15.9 nM. Besides, the Kd with CCL14_HUMAN [11] was determined as 0.711 nM; with CCL1_HUMAN it was 8.6 nM; in the test with CCL20_HUMAN, 15.4 nM; with CCL2_HUMAN, 24.7 nM; with CCL4_HUMAN [12], 3.68 nM; with CCL3L1_HUMAN [13], 2.99 nM. In addition, the Kd is 2.24 nM in the test with CCL3_HUMAN [14], 0.252 nM in the test with CCL18_HUMAN [15], 7.37 nM in the test with CCL17_HUMAN [16] and 3.01 nM with CCL22_HUMAN.

B3: P1243:G4S:P1156 (designed binder)
chain: RNHTEDNSTEYYDYEEARCACPARHLNNTNGTVLKLLGCHYFCNGTLCTAPDGYPCYNLTAQQVRTLTTYPNTSCAVGVCMKGTCVKNGTMEQCFKTPGGGGSADDDNELFTVQYCGMNCTKDEGGTWTGCTGKKEGCKCYHESGKNYGLCLSTEYTDFSQYGNPSDSEIEAAKPKRSDTLSH
For the molecule B3, the Kd with CCL19_HUMAN [17] stood at 2.92 nM; in the test with CCL27_HUMAN, 24.4 nM; with CCL5_HUMAN [18] it was 8.95 nM; with CCL24_HUMAN [19], 16.4 nM; with CCL23_HUMAN [20] it was 0.632 nM; with CCL13_HUMAN [21] it was 1.33 nM. Also, the Kd in the test with CCL21_HUMAN [22] came to 53.8 nM; in the test with CCL15_HUMAN [23], 8.71 nM; with CCL11_HUMAN [24], 19.7 nM; with CCL7_HUMAN [25], 49 nM; with CCL8_HUMAN [26] it was 381 nM; with CCL14_HUMAN [27], 1.99 nM. Further, the Kd is 19.4 nM with CCL4_HUMAN [28]; 4.06 nM with CCL3L1_HUMAN [29]; 16.4 nM with CCL3_HUMAN [30]; 0.543 nM with CCL18_HUMAN [31]; 3.51 nM with CCL17_HUMAN [32]; 17.4 nM in the test with CXCL1_HUMAN. In addition, the affinity with CXCL8_HUMAN, expressed as Kd, was 7.63 nM.
